US20170267756A1

Key:
[1] = molecular target: anti-CD19 T-ChARM^3 with 4-1BB/CD3ζ effector domain; experiment: immunomagnetic selection on a MACS column of T-ChARM3 T cells mixed with control T cells with StrepTactin Microbeads 1#; effluent (not retained) stained with anti-Strep tag-FITC, flow cytometry; 30.2 before enrichment [Continued]
[2] = molecular target: anti-CD19 T-ChARM^2 with 4-1BB/CD3ζ effector domain; experiment: flow cytometry of CD19-ChARM2 T cells; gated FSC/SSC, PI-negative, CD4+; StrepTactin-APC lot 5010-1015; gate from 10^3 on the APC-A axis [Continued]
[3] = molecular target: anti-CD19 T-ChARM^3 with 4-1BB/CD3ζ effector domain; experiment: flow cytometry of CD19-ChARM3 T cells; gated FSC/SSC, PI-negative, CD4+; StrepTactin-APC lot 5010-1018; gate from 10^3 on the APC-A axis [Continued]
[4] = molecular target: anti-CD19 T-ChARM^3 with 4-1BB/CD3ζ effector domain; experiment: immunomagnetic selection on a MACS column of T-ChARM3 T cells mixed with control T cells with StrepTactin Microbeads 2#; retained fraction stained with anti-Strep tag-FITC, flow cytometry; 30.2 before enrichment [Continued]
[5] = molecular target: anti-CD19 T-ChARM^3 with 4-1BB/CD3ζ effector domain; experiment: immunomagnetic selection on a MACS column of T-ChARM3 T cells mixed with control T cells with StrepTactin Nanobeads 3#; retained fraction stained with anti-Strep tag-FITC, flow cytometry; 30.2 before enrichment [Continued]
[6] = molecular target: anti-CD19 CAR (short), IgG4 hinge only, 4-1BB/CD3ζ, no tag; experiment: flow cytometry of CD19(Short) CAR T cells (no tag, control); gated FSC/SSC, PI-negative, CD4+; StrepTactin-APC lot 5010-1015; gate from 10^3 on the APC-A axis [Continued]
[7] = molecular target: anti-CD19 T-ChARM^2 with 4-1BB/CD3ζ effector domain; experiment: flow cytometry of CD19-ChARM2 T cells; gated FSC/SSC, PI-negative, CD4+; StrepTactin-APC lot 5010-1018; gate from 10^3 on the APC-A axis [Continued]
[8] = molecular target: anti-CD19 T-ChARM^3 with 4-1BB/CD3ζ effector domain; experiment: immunomagnetic selection on a MACS column of T-ChARM3 T cells mixed with control T cells with StrepTactin Microbeads 1#; retained fraction stained with anti-Strep tag-FITC, flow cytometry; 30.2 before enrichment [Continued]
[9] = molecular target: anti-CD19 T-ChARM^3 with 4-1BB/CD3ζ effector domain; experiment: flow cytometry of CD19-ChARM3 T cells; gated FSC/SSC, PI-negative, CD4+; StrepTactin-APC lot 5010-1015; gate from 10^3 on the APC-A axis [Continued]
[10] = molecular target: anti-CD19 CAR (short), IgG4 hinge only, 4-1BB/CD3ζ, no tag; experiment: flow cytometry of CD19(Short) CAR T cells (no tag, control); gated FSC/SSC, PI-negative, CD4+; StrepTactin-APC lot 5010-1018; gate from 10^3 on the APC-A axis [Continued]

Substance: Strep-Tactin
- percent STII (FITC-A) positive cells in the column effluent [1]: 9.91%
- percent of cells in the StrepTactin-APC (APC-A) positive gate [2]: 92%
- percent of cells in the StrepTactin-APC (APC-A) positive gate [3]: 96.5%
- percent STII (FITC-A) positive cells in the bead-retained fraction (Enrichment) [4]: 87%
- percent STII (FITC-A) positive cells in the bead-retained fraction (Enrichment) [5]: 80.5%
- percent of cells in the StrepTactin-APC (APC-A) positive gate [6]: 18.1%
- percent of cells in the StrepTactin-APC (APC-A) positive gate [7]: 93.5%
- percent STII (FITC-A) positive cells in the bead-retained fraction (Enrichment) [8]: 77.7%
- percent of cells in the StrepTactin-APC (APC-A) positive gate [9]: 94.7%
- percent of cells in the StrepTactin-APC (APC-A) positive gate [10]: 24.9%
